This is an account of results in US7968297B2, “Method for identification, isolation and production of antigens to a specific pathogen” (Intercell AG, priority 2001, dated 2011).

B1: ORF2694 (protein, listed as Staphylococcus epidermidis)
chain: MKHSSKIIVFVSFLILTIFIGGCGFINKEDSKEAEIKQNFNKTLSMYPTKNLEDFYDKEGYRDEEFDKDDKGTWIINSKMIVEPKGEEMEARGMVLRINRNTRTAKGNFIIKRITENNKGIPDVKDKKYPVKMEHNKIIPTKQIKDKKLKKEIENFKFFVQYGNFKNLKDYKDGEISYNPNVPSYSAQYQLNNYDNNVKQLRKRYDIPTNQAPKLLLKGTGDLKGSSVGYKHLEFTFVENKKENIYFTDSINFNPSRGN
B2: ORF2695 (protein, listed as Staphylococcus epidermidis)
chain: MRYLKKVTIYISLLILTIFIGGCGFINKEDSKETEIKQNFNKMLNVYPTKNLEDFYDKEGFRDEEFDKGDKGTWIIRSEMTKQPKGKIMTSRGMVLYINRNTRTAKGYFLIDEIKDDNSGRPIENEKKYPVKMNHNKIFPTKPISDDKLKKEIENFKFFVQYGDFKNLKDYKDGEISYNPNVPSYSAQYQLNNNDNNVKQLRKRYDIPTNQAPKLLLKGDGDLKGSSVGSKNLEFTFVENKEENIFFTDAVQFTPSEDDES

The first assay has as its target T1, DRA1*0101/DRB1*0401 (Homo sapiens, UniProt P01903+P01911, A100K/A169T/F76Y/I96L/K127E/L162R/M171V/N62H/P40V/Q125Y/R42H/S133A/S149N/S66Y/V115G/V209L/W38E).
T1 construct: using recombinant soluble versions of HLA class II molecules; made in house; host or cells: SC-2 cells
Description: Competition assay with soluble HLA class II molecules. Set-up: key: +, + +: binding; +, + +: binding; −: no competition up to 200 μM test peptide. The settings on record: binding to soluble DRA1*0101/DRB1*0401 molecules. On the procedure: Binding of peptides to HLA molecules on the surface of antigen-presenting cells is a prerequisite for activation of T cells. Binding was assessed in vitro by two independent biochemical assays using recombinant soluble versions of HLA class II molecules. One assay measures the concentration dependent competitive replacement of a labeled reference peptide by the test peptides. The second assay is based on the formation of SDS-stable complexes upon binding of high- and intermediate affinity ligands.
Soluble HLA molecules (DRA1*0101/DRB1*0101 and DRA1*0101/DRB1*0401) were expressed in SC-2 cells and purified as described in Aichinger et al., 1997. For the competition assay (Hammer et al. 1995) HLA molecules were applied between 50 and 200 ng/well. For DRB1*0101 biotinilated indicator peptide HA (PKYVKQNTLKLAT—SEQ ID NO:602, Valli et al. 1993) was used at 0.008 μM. […] Molecules, indicator and test peptides were incubated overnight at 37° C., pH 7. HLA:peptide complexes obtained after incubation with serial dilutions of test and reference peptides (the known high-affinity binders HA and UD4 were used as positive control) were captured in ELISA plates coated with antibody L243, which is known to recognize a conformational epitope formed only by correctly associated heterodimers. Incorporated biotin was measured by standard colorimetric detection using a streptavidin-alkaline phosphatase conjugate (Dako) with NBT/BCIP tablets (Sigma) as substrate and automated OD reading on a Victor reader (Wallac).
As for YDYKYFYSYKVVKGVKKYFSFSQS [p275-299], the binding result was “+”. The same measure, in the same setting: next, “PSLNIKNVNYQYAVPSYSPT (listed as Staphylococcus aureus) [p306-326]”: “+”; FMVEGQRVRTISTYAINNTRCTIF [p395-418]: “− (−: no competition up to 200 μM test peptide)”; KEFKSFYSIRKSSLGVASVAISTL [p6-30]: “+ +”. In the case of TIFRYVEGKSLYE [p416-428], the binding entry is given as “− (−: no competition up to 200 μM test peptide)”. Regarding KLLVLTMSTLFATQIMNSNHAKASV [p4-29], the binding entry is reported as “+”.

For the molecule YKVVKGVKKYFSFSQSNGYKIG [p284-305], the binding entry is on record as “+”. In the case of “GESLNIIASRYGVSVDQLMAANNLRG (listed as Staphylococcus aureus) [p96-121]”, the binding entry was “− (−: no competition up to 200 μM test peptide)”. As to MTLPLMALLALSSIVAFVLPRKRKN [p623-647], the binding result is listed as “− (−: no competition up to 200 μM test peptide)”.

Turning to AGGIFYNQTNQQLLVLCDGMGGHK [p23-47], the binding result is recorded as “− (−: no competition up to 200 μM test peptide)”. For the molecule “VIVSTLFLISQHQAQA (VIVSTLFLITSQHQAQA; listed as Staphylococcus aureus) [p24-40]”, the binding result is on record as “− (−: no competition up to 200 μM test peptide)”. Same read-out and setting: next, “FPYIPDKAVYNAIVKVVVANIGYEGQ (FPYIPDKAVYNAIVKVVVANIGYEGQY; listed as Staphylococcus aureus) [p620-646]”: “+”. Still for that read-out and setting: in the case of IKLVSYDTVKDYAYIRFSVSNGTKA [p209-233] it was “+”; in that of “MNYGYGPGVVTSRTISASQA (EMNYGYGPGVVTSRTISASQA; listed as Staphylococcus aureus) [p240-260]”, “+”; in that of “QSWWGLYALLGMLALFIPKFRKESK (listed as Staphylococcus aureus) [p871-896]”, “− (−: no competition up to 200 μM test peptide)”. For the molecule KDYAYIRFSVSNGTKAVKIVSSTHFNN [p218-244], the binding result is “+”. Same read-out and setting: next, “PKLRSFYSIRKSTLGVASVIVST (listed as Staphylococcus aureus) [p6-28]”: “+”; IKINHFCVVPQINSFKVIPPYGHNS [p226-251]: “− (−: no competition up to 200 μM test peptide)”.

On to ALVFEKSVVIANVGDSRA [p107-124], for which the binding result was “− (−: no competition up to 200 μM test peptide)”. On the same count and under the same terms, in the case of “NNLRGYLIMPNQTLQIPNG (NNLRGYLIMPNQTLQIPNGG; listed as Staphylococcus aureus) [p117-136]” it was “− (−: no competition up to 200 μM test peptide)”; in that of MHVPSFQNNTTATHQN [p254-270], “+”.

The next assay has as its system antibodies in human patient sera. Description: Western blot reactivity of selected clones with human sera. The settings on record: clone and its aa region are named in the cell; prefix A/B/C = screen the clone came from. The format is binding. On the procedure: For Western blot analysis approximately 10 to 20 μg of total cellular protein was separated by 10% SDS-PAGE and blotted onto HybondC membrane (Amersham Pharmacia Biotech, England). The LamB or FhuA fusion proteins were detected using human serum as the primary antibody at a dilution of 1:5000 and anti human IgG antibodies coupled to HRP at a dilution of 1:5000 as secondary antibodies. Detection was performed using the ECL detection kit (Amersham Pharmacia Biotech, England). Alternatively, rabbit anti FhuA or mouse anti LamB antibodies were used as primary antibodies in combination with the respective secondary antibodies coupled to HRP for the detection of the fusion proteins.
Subsequent sequencing of a larger number of randomly picked clones (500 to 800 per screen) led to the identification of the gene and the corresponding peptide or protein sequence that was specifically recognized by the human patient serum used for screening. The frequency with which a specific clone is selected reflects at least in part the abundance and/or affinity of the specific antibodies in the serum used for selection and recognizing the epitope presented by this clone. […] All clones that are presented in Table 2 have been verified by Western blot analysis using whole cellular extracts from single clones to show the indicated reactivity with the pool of human serum used in the screen.
10 to 30 different human patient sera were subsequently used to evaluate the presence of antibodies against the selected immunogenic peptide sequences that have been discovered in the screen according to the present invention. To eliminate possible cross-reactivity with proteins expressed by E. coli, all sera were pre-adsorbed with a total cellular lysate of E. coli DHa cells expressing FhuA protein.
This analysis is summarized in Table 2 and as an example shown in FIG. 4 and is indicative of the validity of the present screen.
In general terms: In western blotting, separated proteins are transferred to a membrane and probed.
Take B1: the “Serum reactivity with relevant region (positive/total)” value is listed as “B: SELAB26(27-60): 5/12”. Still for that read-out and setting: in the case of B2 it was “A: SEFAH77(22-66): 6/12”.
